In patent US20230151091A1 (NEW YORK UNIVERSITY, published 2023):
Changes are numbered by the printed parent chain.

T1: rat MuSK (rat, UniProt Q62838 22-494, limits assumed)
T1 construct: Coated on Biacore chip (200RU) or ELISA plate
T1 sequence (looked up): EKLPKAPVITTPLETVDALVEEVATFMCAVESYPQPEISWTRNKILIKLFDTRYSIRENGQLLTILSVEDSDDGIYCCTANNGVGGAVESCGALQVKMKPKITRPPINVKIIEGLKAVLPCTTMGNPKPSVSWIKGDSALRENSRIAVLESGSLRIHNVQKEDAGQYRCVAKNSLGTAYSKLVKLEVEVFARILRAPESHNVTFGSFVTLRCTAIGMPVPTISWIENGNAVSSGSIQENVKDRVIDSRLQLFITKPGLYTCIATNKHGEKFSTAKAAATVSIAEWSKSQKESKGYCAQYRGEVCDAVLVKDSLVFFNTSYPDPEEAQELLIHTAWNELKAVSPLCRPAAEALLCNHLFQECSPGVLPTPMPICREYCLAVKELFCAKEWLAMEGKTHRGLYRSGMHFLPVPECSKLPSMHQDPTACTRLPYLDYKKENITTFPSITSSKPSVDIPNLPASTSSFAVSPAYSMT

T2: mouse MuSK (mouse, UniProt Q61006 22-494, limits assumed)
T2 construct: Coated on ELISA plates or on the Biacore chip; also called full length mouse MuSK; mouse MuSK (in house produced in HEK293 cells)
T2 sequence (looked up): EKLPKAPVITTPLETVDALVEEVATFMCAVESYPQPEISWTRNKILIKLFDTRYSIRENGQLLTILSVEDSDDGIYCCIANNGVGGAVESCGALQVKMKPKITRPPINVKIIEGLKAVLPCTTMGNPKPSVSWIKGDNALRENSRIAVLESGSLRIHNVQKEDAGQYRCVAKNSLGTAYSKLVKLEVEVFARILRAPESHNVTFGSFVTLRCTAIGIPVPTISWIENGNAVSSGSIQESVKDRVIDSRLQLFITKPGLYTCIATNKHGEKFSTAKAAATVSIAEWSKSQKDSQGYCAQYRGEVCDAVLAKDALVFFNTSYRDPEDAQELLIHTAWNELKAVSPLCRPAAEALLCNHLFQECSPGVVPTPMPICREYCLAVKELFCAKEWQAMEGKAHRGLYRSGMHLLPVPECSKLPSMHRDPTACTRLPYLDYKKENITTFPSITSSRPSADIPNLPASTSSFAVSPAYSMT

T3: hECD: full-length extracellular region of human MuSK (E22 to T495) with C-terminal Avi- and His6-tags (human, UniProt O15146 22-495, biotinylated in vitro using the BirA enzyme)
T3 construct: also called human ECD; not shown: Avi- and His6-tags
T3 sequence: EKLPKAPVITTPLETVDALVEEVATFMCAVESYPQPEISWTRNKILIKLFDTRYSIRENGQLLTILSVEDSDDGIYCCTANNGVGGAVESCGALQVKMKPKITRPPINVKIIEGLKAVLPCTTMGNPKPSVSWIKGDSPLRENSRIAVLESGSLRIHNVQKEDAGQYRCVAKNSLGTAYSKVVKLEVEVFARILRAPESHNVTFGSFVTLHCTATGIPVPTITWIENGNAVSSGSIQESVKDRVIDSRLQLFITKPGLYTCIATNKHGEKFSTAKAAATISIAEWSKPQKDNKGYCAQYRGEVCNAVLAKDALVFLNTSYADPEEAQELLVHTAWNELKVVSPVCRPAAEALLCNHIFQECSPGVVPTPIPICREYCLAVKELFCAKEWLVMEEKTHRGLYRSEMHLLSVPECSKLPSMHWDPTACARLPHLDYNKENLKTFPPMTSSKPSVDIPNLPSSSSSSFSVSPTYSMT

T4: mECD: full-length extracellular region of mouse MuSK (E22 to T494) with C-terminal Avi- and His6-tags (mouse, UniProt Q61006 22-494, biotinylated in vitro using the BirA enzyme)
T4 construct: range 22-494; also called mouse ECD; not shown: Avi- and His6-tags
T4 sequence (looked up): T2 sequence (looked up)

T5: mFz: Fz domain and C-terminal flanking sequence of mouse MuSK (D307 to T494) with C-terminal Avi- and … (mouse, UniProt Q61006 307-494, limits assumed, biotinylated in vitro using the BirA enzyme)
T5 construct: also called mouse Fz; not shown: Avi- and His6-tags
T5 sequence (looked up): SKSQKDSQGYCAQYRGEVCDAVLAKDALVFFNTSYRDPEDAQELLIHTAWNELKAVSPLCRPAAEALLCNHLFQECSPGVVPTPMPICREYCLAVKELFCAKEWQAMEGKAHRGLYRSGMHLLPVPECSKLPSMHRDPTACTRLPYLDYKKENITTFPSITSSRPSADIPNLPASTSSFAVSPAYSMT

T6: hFz: Fz domain and C-terminal flanking sequence of human MuSK (K314-T495) with C-terminal Avi- and His6-tags (human, UniProt O15146 314-495, biotinylated in vitro using the BirA enzyme)
T6 construct: also called human Fz; not shown: Avi- and His6-tags
T6 sequence: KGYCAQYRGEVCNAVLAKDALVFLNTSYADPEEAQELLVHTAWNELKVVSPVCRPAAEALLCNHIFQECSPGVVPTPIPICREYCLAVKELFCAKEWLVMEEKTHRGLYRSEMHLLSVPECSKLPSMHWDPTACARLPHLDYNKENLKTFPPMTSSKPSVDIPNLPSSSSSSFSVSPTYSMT

B1: 3B2g2m1 (antibody, human IgG1, V domains shown)
VH: EVQLLESGGGLVQPGGSLRLSCAASGFTFSDYGMSWVRQAPGKGLEWVSAIPWSGGSTYYKESVKGRFTISRDNSKNTLYLQMNSLRAEDTAVYYCAKRSGRIAFGALDAWGQGTLVTVSS
VL: QTVVTQEPSFSVSPGGTVTLTCGLSSGSVTSSNYPDWYQQTPGQAPRTLIYSTDSRHSGVPDRFSGSILGNKAALTITGAQADDESDYYCGLYSYSGSKNYVFGGGTKLTVL
notes: human IgG1-LALA backbone; produced in HEK293 cells; also called MuSK agonist antibody 3B2g2m1; MuSK-mAb 3B2g2m1
B2: X7 Fab (Fab, V domains shown)
VH: EVQLVESGGGLVQPGGSLRLSCAASGFTLYSSSIHWVRQAPGKGLEWVASISSSYSSTYYADSVKGRFTISADTSKNTAYLQMNSLRAEDTAVYYCARLAGLYHYPGYLGLDYWGQGTLVTVSS
VL: DIQMTQSPSSLSASVGDRVTITCRASQSVSSAVAWYQQKPGKAPKLLIYSASSLYSGVPSRFSGSRSGTDFTLTISSLQPEDFATYYCQQSSRSSLLTFGQGTKVEIK
notes: also called Fab Clone X7
B3: X8 Fab (Fab, V domains shown)
VH: EVQLVESGGGLVQPGGSLRLSCAASGFTVSSSSIHWVRQAPGKGLEWVASISSSSGSTSYADSVKGRFTISADTSKNTAYLQMNSLRAEDTAVYYCARSWSYHPWYYHVGWYTGLDYWGQGTLVTVSS
VL: DIQMTQSPSSLSASVGDRVTITCRASQSVSSAVAWYQQKPGKAPKLLIYSASSLYSGVPSRFSGSRSGTDFTLTISSLQPEDFATYYCQQSSSSLITFGQGTKVEIK
notes: also called Fab Clone X8
B4: 3B2g1m1 (antibody, human IgG1, V domains shown)
VH: B1 VH
VL: B1 VL with S94M
notes: human IgG1-LALA backbone; produced in HEK293 cells

Tests used:
[1] = biological target: T1, rat MuSK; experiment: Biacore, MuSK on chip, association pH 7.4, dissociation pH 5.5
Procedure: (§1) For affinity determination, a CMS chip was coated with cynomolgus monkey, rat and mouse MuSK (200RU) and 66.7 nM of antibody was applied and kinetic parameters calculated (Table 8). The following conclusions could be drawn: (1) 3B2g1m3 and 3B2g2m3 (m3 variants) show significant drop in affinity for MuSK for all species tested; (2) 3B2g1m2 and 3B2g2m2 (m2 variants) show some drop in affinity for MuSK; (3) 3B2g1m1, 3B2g2m1, 3B2g1m4, 3B2g2m4 (ml and m4 variants) show no drop in affinity for MuSK for all species tested; and (4) for all clones there is no difference between g1 and g2 variants (VL methionine versus serine in CDR3).
(§2) In order to study pH dependent binding of our antibodies to MuSK, the same Biacore was used as above, but now dissociation was done at pH 5.5 instead of pH 7.4. […] The following conclusions could be drawn for the different variants: (1) 3B2g1m3 and 3B2g2m3 (m3 variants) show significant drop in affinity for MuSK for all species tested; (2) 3B2g1m2 and 3B2g2m2 (m2 variants) show some drop in affinity for MuSK; (3) 3B2g1m1, 3B2g2m1, 3B2g1m4, 3B2g2m4 (m1 and m4 variants) show no drop in affinity for MuSK for all species tested; and (4) for all clones there is no difference between g1 and g2 variants (VL methionine versus serine in CDR3).

[2] = biological target: T2, mouse MuSK; experiment: as above
Procedure: as §1, §2

[3] = biological target: T7, cynomolgus monkey MuSK (cynomolgus monkey, UniProt A0A2K5USF6 24-487); experiment: as above
T7 sequence (A0A2K5USF6 entry or part of it): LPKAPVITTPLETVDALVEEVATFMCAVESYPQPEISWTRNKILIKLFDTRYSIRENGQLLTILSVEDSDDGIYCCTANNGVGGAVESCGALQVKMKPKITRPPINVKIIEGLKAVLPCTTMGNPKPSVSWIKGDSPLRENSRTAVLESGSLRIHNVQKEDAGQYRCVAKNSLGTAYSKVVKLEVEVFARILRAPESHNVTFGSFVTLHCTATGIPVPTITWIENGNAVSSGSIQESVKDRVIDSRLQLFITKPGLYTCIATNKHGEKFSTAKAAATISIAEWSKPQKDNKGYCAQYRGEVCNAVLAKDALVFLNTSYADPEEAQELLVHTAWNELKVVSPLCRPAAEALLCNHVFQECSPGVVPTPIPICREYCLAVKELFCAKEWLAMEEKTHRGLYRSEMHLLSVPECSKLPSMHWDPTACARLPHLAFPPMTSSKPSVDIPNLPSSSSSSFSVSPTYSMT
Procedure: as §1, §2

[4] = biological target: T1, rat MuSK; experiment: Biacore, MuSK on chip (200RU), 66.7 nM mAb, dissociation pH 7.4
Procedure: as §1

[5] = biological target: T2, mouse MuSK; experiment: as above
Procedure: as §1

[6] = biological target: T7, cynomolgus monkey MuSK; experiment: as above
Procedure: as §1

[7] = biological target: T3, hECD: full-length extracellular region …; experiment: bead-binding assay, Fab format: biotinylated antigen on streptavidin beads, flow cytometry, 1:1 fit; average ± s.d., n=3
[8] = biological target: T4, mECD: full-length extracellular region …; experiment: as above
[9] = biological target: T5, mFz: Fz domain and C-terminal flanking …; experiment: as above
[10] = biological target: T6, hFz: Fz domain and C-terminal flanking …; experiment: as above

Row | Binder | R0 [1] [RU] | koff [1] [s⁻¹] | kon [1] [M⁻¹ s⁻¹] | R0 [2] [RU] | koff [2] [s⁻¹] | kon [2] [M⁻¹ s⁻¹] | R0 [3] [RU] | koff [3] [s⁻¹] | kon [3] [M⁻¹ s⁻¹] | R0 [4] [RU] | koff [4] [s⁻¹] | kon [4] [M⁻¹ s⁻¹] | R0 [5] [RU] | koff [5] [s⁻¹] | kon [5] [M⁻¹ s⁻¹] | R0 [6] [RU] | koff [6] [s⁻¹] | kon [6] [M⁻¹ s⁻¹] | Kd [7] [nM] | Kd [8] [nM] | other results
1 | B1 | 174 | 0.00555 | 1.15e+06 | 193 | 0.00339 | 1.18e+06 | 151 | 0.00288 | 850000 | 160 | 0.00193 | 1.4e+06 | 195 | 0.00104 | 1.32e+06 | 144 | 0.00109 | 890000 |  |  | 
2 | B2 |  |  |  |  |  |  |  |  |  |  |  |  |  |  |  |  |  |  | 6 | 16.2 | Kd [9]: 12 nM; Kd [10]: 4.5 nM
3 | B3 |  |  |  |  |  |  |  |  |  |  |  |  |  |  |  |  |  |  | 1.69 | 44 | Kd [9]: 4.7 nM; Kd [10]: 1.4 nM
4 | B4 | 166 | 0.00595 | 1.16e+06 | 192 | 0.00339 | 1.19e+06 | 147 | 0.0029 | 810000 | 157 | 0.00192 | 1.32e+06 | 193 | 0.0011 | 1.25e+06 | 143 | 0.00117 | 840000 |  |  | 
